Target: murine monoclonal antibody 2A4 (ATCC Accession Number PTA-9662)
Test: Competition ELISA; mouse AA (AEF) in solution competing with adsorbed human AA amyloid extract for mAb 2A4

murine monoclonal antibody 2A4 (ATCC Accession Number PTA-9662), sequence (VL, as listed by the source, chain 1 of 2): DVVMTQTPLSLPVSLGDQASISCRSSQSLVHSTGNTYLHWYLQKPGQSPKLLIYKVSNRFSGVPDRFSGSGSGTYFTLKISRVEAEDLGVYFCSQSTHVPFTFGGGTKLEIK
murine monoclonal antibody 2A4 (ATCC Accession Number PTA-9662), sequence (VH, as listed by the source, chain 2 of 2): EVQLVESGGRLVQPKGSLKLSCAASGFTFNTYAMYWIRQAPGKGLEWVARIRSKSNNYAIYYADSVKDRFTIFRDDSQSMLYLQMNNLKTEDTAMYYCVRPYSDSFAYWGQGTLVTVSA
murine AA amyloid (AA fibrils; amyloid enhancing factor extract, AEF), sequence (P05367 20-94): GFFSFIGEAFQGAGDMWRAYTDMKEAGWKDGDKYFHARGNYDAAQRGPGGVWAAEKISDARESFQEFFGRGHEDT

For “murine AA amyloid (AA fibrils; amyloid enhancing factor extract, AEF)”, the IC50 was 14.7 µg/mL.

— patent US20120039878A1
